Data taken from patent US20140242075A1.

Columns and labels:
C1q (human) [1] = target: C1q (human) (UniProt P02745); assay: FACS, C1q titrated on Daudi cells opsonized with the mix; Exp. 6
C1q (human) [2] = target: C1q (human) (UniProt P02745); assay: cell-based or functional assay
C1q (human) [3] = target: C1q (human) (UniProt P02745); assay: C1q binding ELISA: antibody coated in a dilution series (0.58-10 µg/mL), 3% pooled human serum as source of C1q, rabbit anti-human C1q and swine anti-rabbit IgG-HRP, ABTS, OD 405 nm
C1q (human) [4] = target: C1q (human) (UniProt P02745); assay: FACS, C1q titrated on mAb-opsonized Daudi cells; Exp. 11
C1q (human) [5] = target: C1q (human) (UniProt P02745); assay: FACS, C1q titrated on mAb-opsonized Daudi cells; Exp. 10
C1q (human) [6] = target: C1q (human) (UniProt P02745); assay: FACS, C1q titrated on mAb-opsonized Raji cells; Exp. 3
C1q (human) [7] = target: C1q (human) (UniProt P02745); assay: C1q ELISA, coated antibody series + 3% human serum; mean
C1q (human) [8] = target: C1q (human) (UniProt P02745); assay: FACS, C1q titrated on mAb-opsonized Daudi cells; Exp. 1
C1q (human) [9] = target: C1q (human) (UniProt P02745); assay: FACS, C1q titrated on mAb-opsonized Raji cells; Exp. 1

C1q (human), sequence (P02745 23-245 limits assumed, chain 1 of 3): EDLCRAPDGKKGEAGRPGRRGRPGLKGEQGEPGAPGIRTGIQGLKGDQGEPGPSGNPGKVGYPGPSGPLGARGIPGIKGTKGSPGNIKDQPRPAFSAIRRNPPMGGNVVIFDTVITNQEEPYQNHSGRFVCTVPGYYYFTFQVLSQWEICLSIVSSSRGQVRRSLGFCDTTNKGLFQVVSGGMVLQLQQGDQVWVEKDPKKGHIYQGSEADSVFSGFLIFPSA
C1q (human), sequence (P02746 28-253 limits assumed, chain 2 of 3, further chain): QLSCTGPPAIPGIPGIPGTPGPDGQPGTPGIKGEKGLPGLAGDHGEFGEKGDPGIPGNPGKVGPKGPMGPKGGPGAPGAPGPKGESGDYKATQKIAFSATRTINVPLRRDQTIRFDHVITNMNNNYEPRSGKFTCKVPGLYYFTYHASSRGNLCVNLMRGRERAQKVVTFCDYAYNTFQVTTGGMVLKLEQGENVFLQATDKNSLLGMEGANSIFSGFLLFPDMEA
C1q (human), sequence (P02747 29-245 limits assumed, chain 3 of 3, further chain): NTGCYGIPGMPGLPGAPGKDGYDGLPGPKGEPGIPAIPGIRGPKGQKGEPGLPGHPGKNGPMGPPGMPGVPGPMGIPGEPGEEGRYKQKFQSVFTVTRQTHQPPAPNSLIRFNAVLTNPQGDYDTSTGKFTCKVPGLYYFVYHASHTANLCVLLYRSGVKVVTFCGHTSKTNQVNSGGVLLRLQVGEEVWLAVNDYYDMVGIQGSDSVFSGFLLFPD
IgG1-7D8-E345R (antibody), sequence (heavy, form in doubt): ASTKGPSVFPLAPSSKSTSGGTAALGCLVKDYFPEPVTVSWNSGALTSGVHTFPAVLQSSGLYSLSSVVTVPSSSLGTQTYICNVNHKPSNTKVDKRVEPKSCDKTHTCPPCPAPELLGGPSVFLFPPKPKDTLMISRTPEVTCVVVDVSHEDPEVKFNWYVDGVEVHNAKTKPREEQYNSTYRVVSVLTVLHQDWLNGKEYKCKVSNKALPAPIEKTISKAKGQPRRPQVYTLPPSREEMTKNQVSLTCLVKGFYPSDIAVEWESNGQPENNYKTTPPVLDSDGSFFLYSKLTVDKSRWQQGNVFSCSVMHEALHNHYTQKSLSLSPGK

Row | CH50 for C1q efficacy in a CDC assay on Raji cells (C1q (human) [2]) [µg/mL] | also measured | Substance
1 | 1.33 | Kd (C1q (human) [1]): 3.6 nM | 7D8-K439E + 7D8-S440K mix
2 | 0.03 |  | IgG1-7D8-E345R (antibody)
3 | 0.77 |  | IgG1-7D8-E382R (antibody)
4 | 22.5 |  | IgG1-7D8-G385D (antibody)
5 | > 30 |  | IgG1-7D8-H310K (antibody)
6 | > 30 |  | IgG1-7D8-H433A (antibody)
7 | > 30 |  | IgG1-7D8-H433D (antibody)
8 | 0.16 |  | IgG1-7D8-H433R (antibody)
9 | 0.96 |  | IgG1-7D8-H435A (antibody)
10 | 0.24 | EC50 (read off the curve) (C1q (human) [3]): 2 µg/mL | IgG1-7D8-H435R (antibody)
11 | 11.2 |  | IgG1-7D8-I253A (antibody)
12 | > 30 |  | IgG1-7D8-I253D (antibody)
13 | > 30 |  | IgG1-7D8-I253D/H433A (antibody)
14 | 16.1 |  | IgG1-7D8-I253Y (antibody)
15 | > 30 | EC50 calculated from the CDC assay on Daudi cells (antibody concentration resulting in 50% lysis) (C1q (human) [2]): > 30 µg/mL | IgG1-7D8-K322A (antibody)
16 | > 30 |  | IgG1-7D8-K439E (antibody)
17 | 0.09 |  | IgG1-7D8-K439E/S440K (antibody)
18 | 21.2 |  | IgG1-7D8-N434A (antibody)
19 | 0.63 |  | IgG1-7D8-Q311A (antibody)
20 | > 30 |  | IgG1-7D8-Q438D (antibody)
21 | > 30 |  | IgG1-7D8-S440K (antibody)
22 | 0.49 | Kd (C1q (human) [4]): 13.3 nM; Kd (C1q (human) [5]): 11.8 nM; Kd (C1q (human) [6]): 10.9 nM; EC50 (C1q (human) [7]): 2.05 µg/mL; Kd (C1q (human) [8]): 7.7 nM; Kd (C1q (human) [9]): 4.8 nM | IgG1-7D8-WT (antibody)
23 | > 30 |  | IgG1-7D8-Y436D (antibody)
